Among the data in article PMC2253824 are level in the immune pellet (colloidal coomassie) values, retold here.

For the assay, the target named is TTC4, endogenous in Hela cells (human (endogenous in Hela)) (UniProt O95801). Briefly: co-IP; SDS-PAGE of the anti-TTC4 immune pellet stained with colloidal coomassie blue; data not shown.
Sequence of TTC4, endogenous in Hela cells (human (endogenous in Hela)) (O95801 whole entry): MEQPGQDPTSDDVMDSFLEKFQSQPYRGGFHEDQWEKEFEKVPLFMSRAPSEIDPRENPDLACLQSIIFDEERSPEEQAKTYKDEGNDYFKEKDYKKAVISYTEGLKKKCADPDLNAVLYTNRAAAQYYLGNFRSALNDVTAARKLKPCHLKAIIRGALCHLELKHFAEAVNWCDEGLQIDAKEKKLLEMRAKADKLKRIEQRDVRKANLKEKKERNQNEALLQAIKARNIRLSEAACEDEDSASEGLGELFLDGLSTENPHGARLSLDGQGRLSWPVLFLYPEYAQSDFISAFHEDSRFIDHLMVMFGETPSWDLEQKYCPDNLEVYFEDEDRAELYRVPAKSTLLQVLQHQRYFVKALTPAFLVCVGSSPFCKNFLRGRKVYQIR

Sequence of HSP70, endogenous in Hela cells (P11142 whole entry): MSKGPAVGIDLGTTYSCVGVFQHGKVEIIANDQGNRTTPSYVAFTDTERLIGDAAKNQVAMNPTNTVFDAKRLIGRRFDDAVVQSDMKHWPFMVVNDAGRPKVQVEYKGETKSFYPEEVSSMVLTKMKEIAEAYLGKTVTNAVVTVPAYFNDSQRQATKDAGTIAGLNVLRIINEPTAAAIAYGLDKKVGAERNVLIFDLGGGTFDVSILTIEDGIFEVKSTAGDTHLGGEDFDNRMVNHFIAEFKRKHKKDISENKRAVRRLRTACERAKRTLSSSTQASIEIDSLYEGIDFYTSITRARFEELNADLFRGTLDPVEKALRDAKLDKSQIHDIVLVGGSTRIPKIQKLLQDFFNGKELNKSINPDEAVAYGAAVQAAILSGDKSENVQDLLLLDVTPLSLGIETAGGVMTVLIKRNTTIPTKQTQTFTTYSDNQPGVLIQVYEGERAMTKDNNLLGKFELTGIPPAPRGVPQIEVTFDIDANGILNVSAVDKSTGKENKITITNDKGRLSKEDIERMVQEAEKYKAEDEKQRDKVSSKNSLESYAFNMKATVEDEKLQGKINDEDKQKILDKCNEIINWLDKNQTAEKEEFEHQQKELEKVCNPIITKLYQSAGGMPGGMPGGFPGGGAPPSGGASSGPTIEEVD

As to “HSP70, endogenous in Hela cells (from UniProt P11142 1-646) (natural protein)”, the level in the immune pellet (colloidal coomassie) was 20%.
